# Values of other authors as cited in patent US20230279132A1, “TREATMENT OF B CELL MALIGNANCIES” (NOVARTIS AG, priority 2020, published 2023).
# B1: tafasitamab-cxix: FDA-approved with lenalidomide for relapsed or refractory DLBCL (antibody, chains of the INN, looked up)
# heavy: EVQLVESGGGLVKPGGSLKLSCAASGYTFTSYVMHWVRQAPGKGLEWIGYINPYNDGTKYNEKFQGRVTISSDKSISTAYMELSSLRSEDTAMYYCARGTYYYGTRVFDYWGQGTLVTVSSASTKGPSVFPLAPSSKSTSGGTAALGCLVKDYFPEPVTVSWNSGALTSGVHTFPAVLQSSGLYSLSSVVTVPSSSLGTQTYICNVNHKPSNTKVDKKVEPKSCDKTHTCPPCPAPELLGGPDVFLFPPKPKDTLMISRTPEVTCVVVDVSHEDPEVQFNWYVDGVEVHNAKTKPREEQFNSTFRVVSVLTVVHQDWLNGKEYKCKVSNKALPAPEEKTISKTKGQPREPQVYTLPPSREEMTKNQVSLTCLVKGFYPSDIAVEWESNGQPENNYKTTPPMLDSDGSFFLYSKLTVDKSRWQQGNVFSCSVMHEALHNHYTQKSLSLSPG
# light: DIVMTQSPATLSLSPGERATLSCRSSKSLQNVNGNTYLYWFQQKPGQSPQLLIYRMSNLNSGVPDRFSGSGSGTEFTLTISSLEPEDFAVYYCMQHLEYPITFGAGTKLEIKRTVAAPSVFIFPPSDEQLKSGTASVVCLLNNFYPREAKVQWKVDNALQSGNSQESVTEQDSKDSTYSLSSTLTLSKADYEKHKVYACEVTHQGLSSPVTKSFNRGEC
# System: DLBCL
# Conditions: plus lenalidomide; relapsed or refractory DLBCL ineligible for transplants
molecule,measurement,value
B1,CR,37%
same,ORR,55%
